Our source for the binding result and Kd values is PMC3267895.

The term Kd denotes a measure of binding affinity in units of concentration. Low values mean higher affinity, high ones lower affinity.

Like-named read-outs stand apart in the source and are kept apart here.

The target of data set [1] is T1, NPH-II (vaccinia virus, UniProt P12927 1-676). The data set is described as follows: sucrose gradient centrifugation.
The target in data set [2] is T1, NPH-II. The experiment in a line: smFRET.
Data set [3] deals with T1, NPH-II. The experiment in a line: smFRET. This is another data set of the same source.
Data set [4] concerns the target T1, NPH-II. The experiment in a line: smFRET. This is another data set of the same source.
The target in data set [5] is T1, NPH-II. The experiment in a line: sucrose gradient centrifugation. This is another data set of the same source.
The target of data set [6] is T1, NPH-II. The experiment in a line: sucrose gradient centrifugation. This is another data set of the same source.

Take CAGCAUCAAUGACAUCAGCAUCAA (ssRNA) [single-stranded RNA 24 nt (overhang)]: the binding result with NPH-II [1] was “binds”.

B1: smFRET bipartite RNA with two extra 3' U on complementary strand (dsRNA)
RNA 1: AGCACCGUAAAGACGCAGCCAGCAUCAAUGACAUCAGCAUCAA
RNA 2: GCUGCGUCUUUACGGUGCUUU
modifications: 3' biotin on strand 2
Turning to B1, the Kd with NPH-II [2] was 20.8 ± 7.5 nM; in the data set with NPH-II [3] it was 0.91 ± 0.12 nM; with NPH-II [4], less than 0.01 nM.

B2: bipartite RNA, 19 bp duplex with 24 nt 3' overhang (dsRNA)
RNA 1: B1 RNA 1
RNA 2: GCUGCGUCUUUACGGUGCU
As for B2, in the data set with NPH-II [5], the binding result is “binds”.

B3: blunt-end duplex RNA 19 bp (dsRNA)
RNA 1: AGCACCGUAAAGACGCAGC
RNA 2: GCUGCGUCUUUACGGUGCU
With B3, in the data set with NPH-II [6], the binding result is on record as “binds”.
